From patent US20220282217A1 (BIONTECH US, published 2022)

B1: EGFR_T790M peptide MQLMPFGCL (peptide)
peptide: MQLMPFGCL
notes: synthetic peptide holding the EGFR T790M mutation
B2: EGFR_T790M peptide QLIMQLMPF (peptide)
peptide: QLIMQLMPF
notes: as for B1
B3: EGFR_T790M peptide VQLIMQLMPF (peptide)
peptide: VQLIMQLMPF
notes: as for B1
B4: EGFR_T790M peptide IMQLMPFGCL (peptide)
peptide: IMQLMPFGCL
notes: as for B1
B5: EGFR_T790M peptide MQLMPFGCLL (peptide)
peptide: MQLMPFGCLL
notes: as for B1

Molecular target: T1, HLA class I molecule A02.01
T1 construct: Purified MHC class I complex; also called HLA-A02:01
Assay: pMHC-I dissociation half-life, 125I-b2m
How it was run: (§1)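 Biotinylated MHC-I heavy chain made in E. coli, captured on streptavidin plates and complexed with peptide and radiolabelled light chain. Dissociation started with excess unlabelled light chain at 37 °C. Stability is the half-life in hours from scintillation counts.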

Row | Stability (T1/2 (h)) [h] | Binder
1 | 0.5 | QVLHECNSL (also called MEK, P124L)
2 | 0 | LQVLHECNSL (also called MEK, P124L)
3 | 17 | LLYITAFFL (also called NDUFC2 (-KCDT14)(-1))
4 | 4 | LLALWECSL (also called MSH3(-1))

Molecular target: T2, HLA class I molecule B08.01
T2 construct: Purified MHC class I complex; also called HLA-B08:01
Assay: pMHC-I dissociation half-life, 125I-b2m
How it was run: as §1

Row | Stability (T1/2 (h)) [h] | Binder
5 | 0 | QVLHECNSL (also called MEK, P124L)
6 | 0 | KLSDSRTAL (also called FRG1B, I1OT)
7 | 0 | LQVLHECNSL (also called MEK, P124L)
8 | 0 | LLYITAFFL (also called NDUFC2 (-KCDT14)(-1))
9 | 0 | LLALWECSL (also called MSH3(-1))

Molecular target: T3, HLA-A02.01 (human)
T3 construct: Purified class I MHC
Assay: pMHC-I dissociation half-life, 125I-b2m
How it was run: as §1

Row | Stability (T1/2 (h)) [h] | Binder
10 | 18.7 | RLSSCVPVA (also called TGFBR2(-1))

Molecular target: T4, HLA-B08.01 (human)
T4 construct: Purified class I MHC
Assay: pMHC-I dissociation half-life, 125I-b2m
How it was run: as §1

Row | Stability (T1/2 (h)) [h] | Binder
11 | 0 | HPRPAPASA (also called TP53, SHST)
12 | 0.7 | LPSQRRNHWM (also called TP53, CSES)

Molecular target: T5, HLA-B07.02 (human)
T5 construct: Purified class I MHC
Assay: pMHC-I dissociation half-life, 125I-b2m
How it was run: as §1

Row | Stability (T1/2 (h)) [h] | Binder
13 | 4.9 | HPRPAPASA (also called TP53, SHST)
14 | 3.7 | LPRKPTRAAT (also called TP53, QPSL)
15 | 6.5 | LPSQRRNHWM (also called TP53, CSES)
16 | 3 | KPTRAATVSV (also called TP53, QPSL)

Molecular target: T6, HLA-A03.01 (human)
T6 construct: Purified class I MHC
Assay: pMHC-I dissociation half-life, 125I-b2m
How it was run: as §1

Row | Stability (T1/2 (h)) [h] | Binder
17 | 0 | RLSSCVPVA (also called TGFBR2(-1))

Molecular target: HLA-A02.01 (human)
Assay: pMHC-I complex dissociation at 37 C, 125I-b2m, half-life
How it was run: as §1

Row | Stability (T1/2 (h)) [h] | Binder
18 | 0.6 | VVPLYGLLL (also called ESR1, D538G)
19 | 0.4 | GVYTFLPSTL (also called ESR1, S463P)
20 | 0 | YLVIQLQDKF (also called EGFR: SEPT14)
21 | 0.3 | KGPELFPLI (also called C11orf95: RELA)
22 | 0 | VVPLCDLLL (also called ESR1, Y537C)
23 | 0 | VVPLSDLLL (also called ESR1, Y537S)

Molecular target: T7, HLA-A24.02 (human)
T7 construct: As for HLA-A02.01
Assay: as above
How it was run: as §1

Row | Stability (T1/2 (h)) [h] | Binder
24 | 0.8 | VVPLYGLLL (also called ESR1, D538G)
25 | 0 | GVYTFLPSTL (also called ESR1, S463P)
26 | 2.6 | YLVIQLQDKF (also called EGFR: SEPT14)
27 | 1.7 | KGPELFPLI (also called C11orf95: RELA)
28 | 0.4 | VVPLCDLLL (also called ESR1, Y537C)
29 | 0.5 | VVPLSDLLL (also called ESR1, Y537S)

Molecular target: T5, HLA-B07.02
Assay: competition with radiolabeled reference peptide, purified MHC I
Method: (§2) Peptides were incubated at varying concentrations with these complexes for 2 days, and the amount of remaining radiolabeled peptide bound to […] was measured using size exclusion gel-filtration.

Row | IC50 [nM] | Binder
30 | 11 | HPRPAPASA (also called TP53, SHST)
31 | 3 | LPRKPTRAAT (also called TP53, QPSL)
32 | 10 | LPSQRRNHWM (also called TP53, CSES)
33 | 223 | ALKKLRSPL (also called SMAP1(-1))
34 | 826 | RVQNQGHLL (also called UBR5(-1))
35 | 78 | KSRQNHLQL (also called SMAP1(-1))
36 | 8 | KPTRAATVSV (also called TP53, QPSL)

Molecular target: T1, HLA class I molecule A02.01
Assay: competition with radiolabeled reference peptide on purified MHC I
Method: as §2

Row | IC50 [nM] | Binder
37 | 7770 | QVLHECNSL (also called MEK, P124L)
38 | 4720 | LQVLHECNSL (also called MEK, P124L)
39 | 713 | LLYITAFFL (also called NDUFC2 (-KCDT14)(-1))
40 | 323 | LLYITAFFLL (also called NDUFC2 (-KCDT14)(-1))

Molecular target: T8, HLA class I molecule B07.02
T8 construct: Purified MHC class I complex; also called HLA-B07:02
Assay: as above
Method: as §2

Row | IC50 [nM] | Binder
41 | 221 | GPPARVPAV (also called GATA3 . . ; CSNH)
42 | 28.2 | KPKRDGYMF (also called GATA3 . . ; CSNH)
43 | 14 | FATLQRSSL (also called GATA3 . . ; CSNH)
44 | 267 | MFATLQRSSL (also called GATA3 . . ; CSNH)
45 | 98.1 | KPKRDGYMFL (also called GATA3 . . ; CSNH)

Molecular target: T9, HLA class I molecule A24.02
T9 construct: Purified MHC class I complex; also called HLA-A24:02
Assay: as above
Method: as §2

Row | IC50 [nM] | Binder
46 | 0.1 | LYITAFFLL (also called NDUFC2 (-KCDT14)(-1))
47 | 332 | MFLKAESKI (also called GATA3 . . ; CSNH)
48 | 45.3 | LYITAFFFCW (also called NDUFC2 (-KCDT14)(+1))
49 | 60.1 | LLYITAFFLL (also called NDUFC2 (-KCDT14)(-1))
50 | 0.4 | LYITAFFLLD (also called NDUFC2 (-KCDT14)(-1))

Molecular target: T10, HLA class I molecule A03.01
T10 construct: Purified MHC class I complex; also called HLA-A03:01
Assay: as above
Method: as §2

Row | IC50 [nM] | Binder
51 | 57.5 | AISTRDPLSK (also called PIK3CA, E542K)
52 | 16 | VLWTTPPLQH (also called GATA3 . . ; CSNH)
53 | 185 | FFCWILSCK (also called NDUFC2 (-KCDT14)(+1))
54 | 597 | FFFCWILSCK (also called NDUFC2 (-KCDT14)(+1))

Molecular target: HLA-A02.01 (human)
Assay: competition vs radiolabeled reference peptide on purified MHC I, gel filtration
Method: as §2

Row | IC50 [nM] | Binder
55 | 1200 | GVYTFLPSTL (also called ESR1, S463P)
56 | 2060 | YLVIQLQDKF (also called EGFR: SEPT14)
57 | 101 | KGPELFPLI (also called C11orf95: RELA)
58 | 1200 | VVPLCDLLL (also called ESR1, Y537C)
59 | 2550 | VVPLSDLLL (also called ESR1, Y537S)

Molecular target: T7, HLA-A24.02
Assay: as above
Method: as §2

Row | IC50 [nM] | Binder
60 | 658 | VVPLYGLLL (also called ESR1, D538G)
61 | 7700 | GVYTFLPSTL (also called ESR1, S463P)
62 | 2150 | YLVIQLQDKF (also called EGFR: SEPT14)
63 | 14 | KGPELFPLI (also called C11orf95: RELA)
64 | 3890 | VVPLCDLLL (also called ESR1, Y537C)
65 | 8250 | VVPLSDLLL (also called ESR1, Y537S)

Molecular target: T11, HLA-A03.01 (human)
T11 construct: As for HLA-A02.01
Assay: as above
Method: as §2

Row | IC50 [nM] | Binder
66 | 2710 | CLSFLSSWDY (also called C15ORF40(+1))
67 | 95.9 | YMANGSLLNY (also called BTK, C481S)

Molecular target: T12, HLA-A01.01 (human)
T12 construct: As for HLA-A02.01
Assay: as above
Method: as §2

Row | IC50 [nM] | Binder
68 | 987 | CLSFLSSWDY (also called C15ORF40(+1))
69 | 4370 | MSVCFFFFCY (also called CNOT1(-1))
70 | 52.9 | LSFLSSWDY (also called C15ORF40(+1))
71 | 13.2 | YMANGSLLNY (also called BTK, C481S)

Molecular target: HLA-B08.01 class I MHC molecule (prepared complex) (human)
Assay: dissociation of peptide-MHC-I complex at 37 C, 125I-labelled b2m, scintillation
Method: (§3) Briefly, synthetic genes encoding biotinylated MHC-I heavy and light chains are expressed in E. coli and purified from inclusion bodies using standard methods. […] These reactions are carried out in streptavidin coated microplates to bind the biotinylated MHC-I heavy chains to the surface and allow measurement of radiolabeled light chain to monitor complex formation. Dissociation is initiated by addition of higher concentrations of unlabeled light-chain and incubation at 37° C. Stability is defined as the length of time in hours it takes for half of the complexes to dissociate, as measured by scintillation counts.

Row | Stability (half-life (hr.)) [h] | Binder
72 | 0 | B1
73 | 0 | B2
74 | 0 | B3
75 | 0 | B4
76 | 0 | B5

Molecular target: T2, HLA class I molecule B08.01
Assay: pMHC-I dissociation assay with 125I-labeled beta2m light chain at 37 C, scintillation counts; time in hours for half of the complexes to dissociate
Method: as §3

Row | Observed MHC Stability [h] | Binder
77 | 0 | FATLQRSSL (also called GATA3 . . ; CSNH)
78 | 0.4 | IMKPKRDGYM (also called GATA3 . . ; CSNH)
79 | 0 | LHFCRSSIM (also called GATA3 . . ; CSNH)
80 | 1.2 | FLKAESKIM (also called GATA3 . . ; CSNH)
81 | 1.3 | ESKIMFATL (also called GATA3 . . ; CSNH)
82 | 0 | MFATLQRSSL (also called GATA3 . . ; CSNH)
83 | 0 | FLKAESKIMF (also called GATA3 . . ; CSNH)

Molecular target: T8, HLA class I molecule B07.02
Assay: as above
Method: as §3

Row | Observed MHC Stability [h] | Binder
84 | 1.6 | GPPARVPAV (also called GATA3 . . ; CSNH)
85 | 8.6 | KPKRDGYMF (also called GATA3 . . ; CSNH)
86 | 0.7 | FATLQRSSL (also called GATA3 . . ; CSNH)
87 | 0 | MFATLQRSSL (also called GATA3 . . ; CSNH)
88 | 3.3 | KPKRDGYMFL (also called GATA3 . . ; CSNH)
